The data set in a line: label from the status in PepcDB records.

As for “MRPVLLLCCLFLSATAQAEDCSPQTSVGSWCELPLAALHPTQQNVGLLQVEDDQAKLAGKKPKALERYLRKKEIPVVIGPGGRFYLTDRHHLSSALWRLDPKQGVPVKVIGRLPQASDFWEKMQENHWVWLHDARGAEIPPEALPDALAGLGDDPYRALAGYAEDENAFDKDRQSYFIEFHWARYFGERMHWRPISRATLPDDLKQALRLACEPAARELPGYRQDCPHLEHHHHHH”, the protein production result is recorded as “failed”.

As for “MRQATMDFSSSSVFDQHKGDSSEEVDLTMVYQAASNGDVNSLTAVIREDPSILECCDSEGCTPLMHAVSGRQVDTVKLLLKMGANINTQDAYGRTSLCLATYLGWLEGCVSLLRNGAKHNIPDKNGRLPLHAATAEPDVRLLIVLLQQSSLSEINHQDTEGMTPLHWAAFHNRPQHTQMLLKKGADPTLVDKDFKTALHWAVQYGRSRVACQDVLGHAQGPGRASQETTISVSCQHALLGISNIYNKAGRITEASSQQLTSDFRTPLHWAAAAGKAECVQSLLDLGMDSNLRDINESTPLAYALYCGHTACVRLLSREGRAEPARPLPSQNSQPQKKEGRFSVLNQIFCKNKKEEQKAHQKEQSRARPKEEDTSEVNDIIATFDSVVDTNCQDQPGDQVDMVVFKKRTSENSKYLLPEKKSLARKGLPPIRTQSLPPITLGSNFLTASHGATSHAGLNSGLQHTAQRSQKSRSEQDLLNNRTGCQVSLDNPWKGDTRQAFSCKAWTVSSSDKLLDRMFTGQPGHQELSGPPHLPHLPNPSPGQGLQHLSPNRPKVRDFPFTRNSLAPLPDQKFLSGEPLRTNRVLPAIPSQRGHDPPAEESEWSSSPTHDEN”, the protein production entry was “failed”.

Take “MRQFKTESKKLLDLMINSIYTNKEIFLRELISNASDAVDKLNFKSLQDPSVKIDQGDLAIRVSFDKDARTITISDNGIGMTAEELERNLGTIAHSGSEEFKTENAEQQGSDVDIIGQFGVGFYSAFMVASHVKVVSRAYGEDVAHVWESDGLEGYTIEDGERAEHGTDVILTLRENEKLDADGEAETYDRFLTEWGLKSLIQQYSNYVRYPIQMMVSKSRQKPKPEDAGDDYKPEYEDYQELETVNSMTPIWKKRSSDVEQKDYDEFYKSTFHDFDDPARTISFHAEGTLEYDALLFVPGRAPFDLYSKDYEKGLSLYSSNVLIMEKCDDLLPDYYNFVRGVVDSADVSLNISRETLQQNRQLKAIAKRVEKKITADLEDMRDNDREAYEKFFENFGRGLKYGIYSSYGMKADELADLLLFWSAKEQKMITLAEYAKGMPEDQKAIYYAAGDSRERLAKMPVVKGVLDRGYDVLLLTQDVDEFTFQAMREYVAADMPKIYEDDAAREAAEKAVADGAEPEVEDRHLELKNVATGDLDLATEDEKKEAEDATKENEDLFSAMKEALGDKVEKVAVSARLTDAPACITTEGPLSLEMEKVLQKGPEGAPDGMPKSQRVLELNAKHPVFDKLVAAQKAGDADKIKQYSGLLYDQALLVEGILPEDPVAFAAAVCNLM”: the protein production result is listed as “failed”.

Turning to “MRQGEPGSPFSYLPVYQGPAVMSLRIFYHPLYSALTLPARHRFPLAKYQALFERLGSLGYPLAEAAPATPEQIKRVHDAAYVEAALAGTLDADAIRQLGFPWSPLLMERTLRSVGATLAASRHALEQGCGLQISGGYHHAHRDVGSGFCLFNDLVIAAQVCLDEGRCEQVLIVDLDVHQGDGSAALCQGRRDIITLSLHGEHNFPRYKPASHMDFPLPSGMADDAYLTTLAEALNLALRLYAPDLILYQAGVDVHKDDELGYLALSDEGIRQRDAMVFDCALRHGLPIAAVPGGGYRRDWQQLIPLHMSLFEEAKKRYG”, the protein production entry is “failed”.

For the sequence “MRQHLSLFPFILFLLLAFSYVGCRTVRQTPKQSERYVVVLSLDGFRPDYTDRARTPALDRMAQEGLSGSLQPCFPSLTFPNHYSMATGLYPDHHGIVANEFVDSLLGIFRISDRKAVETPGFWGGEPVWNTAARQGIRTGVYFWVGSETAVNGNRPWRWKKFSSTVPFRDRADSVIAWLGLPEKERPRLLMWYIEEPDMIGHSQTPESPLTLAMVERLDSVVGYFRKRLDSLPIAAQTDFIIVSDHGMATYENEKCVNLSHYLPADSFLYMATGAFTHLYPKPSYTERAYEILRAIPHISVYRKGEVPKRLRCGTNPRLGELVVIPDIGSTVFFAINEDVRPGAAHGYDNQAPEMRALLRAVGPDFRPGSRVENLPNITIYPLICRLLGIEPAPNDADETLLNGLIRDKRP”, the protein production result is “failed”.

Turning to “MRQHWRMRHLALACFLLAPGAALASDCPTAPDHSERIAHLIEDIRAAPNEMQARTISNRMWEIWADAPDEAAQAILDNGMSRRRAWDLLGALSEFDRLVAYCPDYAEGYNQRAFANFLRQDFAAALIDLDRALALSPNHVAAMSGRALTLMGLGRIDEARSVLNQALELNPWLPERGLVAPGGPLEPKGKDI”, the protein production result is recorded as “failed”.

Take “MRQKETTATTRFSLLPGSITRFFLLLIIVLLVTMGVMVQSAVNAWLKDKSYQIVDITHAIQKRVDTWRYVTWQIYDNIAATTSPSSGEGLQETRLKQDVYYLEKPRRKTEALIFGSHDNSTLEMTQRMSTYLDTLWGAENVPWSMYYLNGQDNSLVLISTLPLKDLTSGFKESTVSDIVDSRRAEMLQQANALDERESFSNMRRLAWQNGHYFTLRTTFNQPGHLATVVAFDLPINDLIPPGMPLDSFRLEPDATATGNNENEKEGTDSVSIHFNSTKIEISSALNSTDMRLVWQVPYGTLLLDTLQNILLPLLLNIGLLALALFGYTTFRHFSSRSTESVPSTAVNNELRILRAINEEIVSLLPLGLLVHDQESNRTVISNKIADHLLPHLNLQNITTMAEQHQGIIQATINNELYEIRMFRSQVAPRTQIFIIRDQDREVLVNKKLKQAQRLYEKNQQGRMTFMKNIGDALKEPAQSLAESAAKLNAPEGKQLANQADVLVRLVDEIQLANMLADDSWKSETELFSVQDLIDEVVPSVLPAIKRKGLQLLINNHLKAHDMRRGDRDALRRILLLLMQYAVTSTQLGKITLEVDQDESSEDRLTFRILDTGEGVSIHEMDNLHFPFINQTQNDRYGKADPLAFWLSDQLARKLGGHLNIKTRDGLGTRYSVHIKMLAADPEVEEEEERLLDDVCVMVDVTSAEIRNIVTRQLENWGATCITPDERLISQDYDIFLTDNPSNLTASGLLLSDDESGVREIGPGQLCVNFNMSNAMQEAVLQLIEVQLAQEEVTESPLGGDENAQLHASGYYALFVDTVPDDVKRLYTEAATSDFAALAQTAHRLKGVFAMLNLVPGKQLCETLEHLIREKDVPGIEKYISDIDSYVKSLL”: the protein production result is listed as “failed”.

On to “MRQTKLTKAARGRECQVRIPGVCNGNPETTVLAHYRLAGTCGVGKKPHDMQGAWCCSACHDACDGRSRAVGRETARQYHAEGVMRTQALLLNEGVLVE”, for which the protein production result is recorded as “not failed”.

As to “MRQVFSTDQEYKADKSPENLFPLTEVTRKMEYEERFDQAVRVTGVGLFVNLGLTIFKLLAGILGNSTAMVADAVHSLSDFLTDVVVIFGFKIAKKPVDESHNYGHGKIETLSASLVGLMLLLVAGQILYYGVQKTLMFIEAGTLEQPAIIALYAALASVISKEIMYQYTILKARKINSMALTANAWHHRSDAFSSFCTMIGIGAAVFLGGKWVVLDPLMAVFLSFIILKVSLKIFHSSINELVEASLDEKTESEIRQIIQKTEGVKALSNLKTRRIGNNIAVDIRIKVDNALDIGEANRISIHVEHNLKKAFGPYTYVLVKAEPYEREPWGNPEDEKAREHPVNPEKNKVCLRNHSN”, the protein production entry is “failed”.

Consider “MRRCPLCHSTQTHLLLQDKKRCFYICQTCWLTFADANSHLPPAAEKQRYGRSRIASKQRHLSQFILPLLTQIQQQQNGSLTGLNFGRVLDQTSLETIESAGHTFKQYDPFFAPDHETLKQEYDFICCYRVFEHFQYPIKEWSLLTRLLKPGGWLAISTPLLIDLEGFAKWHYKNNLTHVSFYQRQTFEYLASNSDFELLFAAKDLVLMQKTSLEHHHHHH”, for which the protein production entry is on record as “not failed”.

In the case of “MRRFLVLLWLLSLALAAPRLVVEPEDGVKPLLDLIASAREEILVKMYLWTPSRMDVVEALGEAARRGVRVRVLLEREPSGGRVDLEVFQALKARGVEVRLTTPFRFVFVHEKSLVVDRKRAWVGTMNLTGSSFAANREYALILDDPAQVAEIAKVFEADWEGERLDLSQALLVWAPSRVLGGVKEGNARETLLALIRGAQRELFLEHQAMADPEVEAALKEALGRGVRVRLLGSPKEPGDTYFLAGALRLKEAGALVRFLPDPYVHAKVLVRDGEEALLGSLNLSANSIQANRELAVRFTAREAPEAFRRLLFVMEGDWEKALPENPFALPPVEGVIPWQEAPRYFGRVATVEGVIQAVEDRGTVAFLKFGPGESDLRLVVFPRSYGLFAQPFPQSYLGKKVRARGRIVLYAGYYEIVLEGPENLEVLDGGP”, the protein production result is “failed”.

Take “MRRFVIGQAKNLIDQSRRRQLHHHKNLSFVSLIPPFSAPSDSSSRHLSSSSSSDMSASDSSSSLPVTLDTINPKVIKCEYAVRGEIVNIAQKLQEDLKTNKDAYPFDEIIYCNIGNPQSLGQQPITFFREVLALCSYTALLDESATHGLFSSDSIERAWKILDQIPGRATGAYSHSQGIKGLRDAIADGIEARDGFPADPNDIFMTDGASPGVHMMMQLLITSEKDGILCPIPQYPLYSASIALHGGTLVPYYLDEASGWGLEISELKKQLEDARSKGITVRALAVINPGNPTGQVLSEENQRDVVKFCKQEGLVLLADEVYQENVYVPDKKFHSFKKVARSMGYGEKDLALVSFQSVSKGYYGECGKRGGYMEVTGFTSDVREQIYKMASVNLCSNISGQILASLIMSPPKPGDDSYESYIAEKDGILSSLARRAKTLEEALNKLEGVTCNRAEGAMYLFPCLHLPQKAIAAAEAEKTAPDNFYCKRLLKATGIVVVPGSGFRQVPGTWHFRCTILPQEDKIPAIVDRLTAFHQSFMDEFRD”: the protein production result was “failed”.

In the case of “MRRKLRYLNYRILIPYLILVVVGIILVYSASSDILLVNGFKPDVYGIRQAIYAAVAFFGFGIPFFALRLKVIKNPKFVAGFLIICILMLLWLVFLRFAHGSAAAVNGAVGWINLGFINLQPLEVTKLALVIYLAYVLDRRDGKLVRGKIKDNLSHPAMLAGFLMCLVIVEPDFGGTAILFMITLVMFSVSGVPVRLALTWLLGIILLVGAVFILVVLWNPKFLQDSYQFQRLMSFLHPFQLERKGGAQLVNSYYAIHNGGLFGVGLGNSMQKRGYLPEPYTDFILSITAEEIGVIFTIVLVGLLFYLMWQIMEVGINAVSQFDALICFGVTTIIFTEALFNIGAVLGLLPITGVTLPFISYGGSSMIVLTAAIGLVLNVSANEKMLKEKDETIA”, the protein production entry is given as “failed”.

As for “MRRLALLFPVLALLVGVWAFPLLGPLFRHGAVPNPFALKEPFTLLVYGSSPEYVEYHKRAPERFRGLADTILLVRLDPGANRVVVLSVPRDVWVLLPGHGWHKVNAASPLGGPELMKEAVARITGVRPDRYVVVSLEALRRGVDALGGVRVCVEKPMRYQDQAAGLVIDLEPGCQVLSGAQAEGYLRFRKDALGDIGRIQRQQAFFHALKDQLFSLPGLLRLPRAVAAVEPYVATDLTRGEKGALLGFLLRRPAFVSLLLPGRFAGGWAVDEAAWARLRAVYFEDREAWGEALAGKRAVVLFGPGQGALAQEAAERLKALGLSVSLRELALAPERTEVLENGPGRLAQALGEALGVPYRVSGEAALGADLTLRLGREGLPR”, the protein production entry is listed as “failed”.

As for “MRRLLTAVLISTLGAASLVRADGPAPFSKVFEDISADQPGCAAGVMRGGKVIWSAGYGAADLTTGAAIQADTLFNLASVSKQFTGFAILQLQAQGRLSLEDPVRRFLPELPAYAQGIRIRHLLHHTSGLQDYMLLAELAGIPLSQRFTQQQALDLLVRQNSLMFPPGSEFSYSNSGYVLLSSIVERASGLSLKHYSRANIFLPLGMDHSSIVDQYPVQLPNLARGYEPGGQGKAQVAVDARWEQTGDGQVHSNVADLMRWLRNLSTGRVGGKALVENMRQTEPLNDGDPGYYGMGLANRSYRGLQELSHSGGWAGFNTDVAWYPKLDVATVVLCNSDDGRASERGRQLLDTLLGSPAPSGEADIPPPPPSIRALPKASLKTLVAGTYLDDGGHQLQLRRSGKGWSLETFPDVLPLTRQSDEVLVADNDGTPIYLAATSGGRIALNNPASTYALAPPWKPDDIRPYVGLYTLETSPGQLKVHARQGKLYVRIGLYTYPMQPLTAERFSAGELGVLSFAEQGAVLTSSVARNLRFGKVFAP”, the protein production entry is recorded as “failed”.

Values taken from a protein production outcome set (Wang et al. 2014).
